Consider 34 sequences from the supplement of paper PMC7877785.

This series can be described thus: self-splicing fitness, log relative to wild type (ln ratio); higher = more splicing; Tetrahymena group I intron in knt gene, E. coli kanamycin selection, DiMSum; sequences stand for … in CUCUCU…GGAGGGAAAAGUUAUCAGGCAUGCACCUGGUAGCUAGUCUUUAAACCAAUAGAUUGCAUCGGUUUAAAAGGCAAGACCGUCAAAUUGCGGGAAAGGGGUCAACAGCCGUUCAGUACCAAGUCUCAGGGGAAACUUUGAGAUGGCCUUGCAAAGGGUAUGGUAAUAAGCUGACGGACAUGGUCCUAACCACGCAGCCAAGUCCUAAGUCAACAGAUCUUCUGUUGAUAUGGAUGCAGUUCACAGACUAAAUGUCGGUCGGGGAAGAUGUAUUCUUCUCAUAAGAUAUAGUCGGACCUCUCCUUAAUGGGAGCUAGCGGAUGAAGUGAUGCAACACUGGAGCCGCUGGGAACUAAUUUGUAUGCGAAAGUAUAUUGAUUAGUUUUGGAGUACUCGUGGUCG
In short, it runs like this:
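The eight P1ex-region nucleotides of an intron in the knt kanamycin-resistance gene on pET-22b(+) were all randomised and the library put into E. coli BL21(DE3). Six replicate transformations were grown overnight at 37°C or 30°C on LB agar with or without 25 μg/mL kanamycin, together with 100 μg/mL carbenicillin, 50 μM IPTG and 0.2% rhamnose. Colonies were pooled and amplicon-sequenced on an Illumina HiSeq 2500. Fitness from DiMSum is the error-weighted combination of wild-type-normalised replicate fold changes, kanamycin over none.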

± gives the uncertainty stated by the source.

Take CUAUAGCAAUAUUACGCUUA: the “self-splicing fitness (ln)” value by setting is: (30 °C) -2.47 ± 0.24; (37 °C) -2.34 ± 0.3.

For the sequence CUAUAGCAAUAUUACGGAAU, the “self-splicing fitness (ln)” value (30 °C) is -3.5 ± 0.4.

With CUAUAGCAAUAUUACGGACA, the “self-splicing fitness (ln)” value is, setting by setting: (30 °C) -2.77 ± 0.22; (37 °C) -1.1 ± 0.29.

Take CUAUAGCAAUAUUACGGACC: for the setting “37 °C”, the “self-splicing fitness (ln)” value is -1.23 ± 0.34.

Consider CUAUAGCAAUAUUACGGCGC, for which the “self-splicing fitness (ln)” value (30 °C) is -2.5 ± 0.28.

In the case of CUAUAGCAAUAUUACGGUAG, the “self-splicing fitness (ln)” value is, setting by setting: (30 °C) -2.21 ± 0.14; (37 °C) -2.58 ± 0.2.

Regarding CUAUAGCAAUAUUACGUAAG, the “self-splicing fitness (ln)” value by setting is: (30 °C) -0.717 ± 0.058; (37 °C) 0.183 ± 0.084.

Regarding CUAUAGCAAUAUUACGUAGA, the “self-splicing fitness (ln)” value (30 °C) was -3.52 ± 0.33 and the “self-splicing fitness (ln)” value (37 °C) is -1.87 ± 0.34.

Turning to CUAUAGCAAUAUUACGUCAG, the “self-splicing fitness (ln)” value was -1.75 ± 0.11 (30 °C) and -0.591 ± 0.12 (37 °C).

In the case of CUAUAGCAAUAUUACGUCCA, the “self-splicing fitness (ln)” value (30 °C) was -4.03 ± 0.36 and the “self-splicing fitness (ln)” value (37 °C) was -3.13 ± 0.4.

Regarding CUAUAGCAAUAUUACGUCUA, the “self-splicing fitness (ln)” value by setting is: (30 °C) -3.05 ± 0.36; (37 °C) -3.16 ± 0.35.

Consider CUAUAGCAAUAUUACGUGAA, for which the “self-splicing fitness (ln)” value is -4.01 ± 0.19 (30 °C) and -2.51 ± 0.21 (37 °C).

Turning to CUAUAGCAAUAUUACGUGCG, the “self-splicing fitness (ln)” value (30 °C) is -1.19 ± 0.1 and the “self-splicing fitness (ln)” value (37 °C) is -0.322 ± 0.13.

In the case of CUAUAGCAAUAUUACGUUCG, the “self-splicing fitness (ln)” value is -0.385 ± 0.094 (30 °C) and -0.145 ± 0.14 (37 °C).

As to CUAUAGCAAUAUUACGUUUU, the “self-splicing fitness (ln)” value was -3.44 ± 0.16 (30 °C) and -2.61 ± 0.21 (37 °C).

In the case of CUCAAGCAAUAUUACGACAC, the “self-splicing fitness (ln)” value runs as follows: (30 °C) -3.35 ± 0.29; (37 °C) -2.52 ± 0.3.

For CUCAAGCAAUAUUACGAGCC, the “self-splicing fitness (ln)” value (37 °C) is -2.67 ± 0.3.

In the case of CUCAAGCAAUAUUACGAUUU, the “self-splicing fitness (ln)” value is, setting by setting: (30 °C) -3.68 ± 0.21; (37 °C) -2.4 ± 0.25.

As for CUCAAGCAAUAUUACGCCCA, the “self-splicing fitness (ln)” value is -3.18 ± 0.4 (30 °C) and -2.01 ± 0.47 (37 °C).

Regarding CUCAAGCAAUAUUACGCCGU, the “self-splicing fitness (ln)” value by setting is: (30 °C) -3.42 ± 0.17; (37 °C) -1.88 ± 0.15.

With CUCAAGCAAUAUUACGCGAC, the “self-splicing fitness (ln)” value (30 °C) is -1.93 ± 0.16 and the “self-splicing fitness (ln)” value (37 °C) was -1.45 ± 0.19.

CUCAAGCAAUAUUACGCGGC: the “self-splicing fitness (ln)” value (30 °C) was -3.21 ± 0.25 and the “self-splicing fitness (ln)” value (37 °C) was -3.15 ± 0.34.

As to CUCAAGCAAUAUUACGCUCA, the “self-splicing fitness (ln)” value is, setting by setting: (30 °C) -3.34 ± 0.26; (37 °C) -2.49 ± 0.24.

Take CUCAAGCAAUAUUACGCUGU: the “self-splicing fitness (ln)” value was -3.74 ± 0.21 (30 °C) and -1.59 ± 0.23 (37 °C).

In the case of CUCAAGCAAUAUUACGGAUC, the “self-splicing fitness (ln)” value runs as follows: (30 °C) -3.98 ± 0.43; (37 °C) -2.19 ± 0.27.

Regarding CUCAAGCAAUAUUACGGCAA, the “self-splicing fitness (ln)” value is, setting by setting: (30 °C) -3.15 ± 0.32; (37 °C) -1.32 ± 0.24.

Turning to CUCAAGCAAUAUUACGGCCG, the “self-splicing fitness (ln)” value is, setting by setting: (30 °C) -1.2 ± 0.13; (37 °C) -1.69 ± 0.24.

In the case of CUCAAGCAAUAUUACGGGGC, the “self-splicing fitness (ln)” value is -4.64 ± 0.41 (30 °C) and -3.31 ± 0.33 (37 °C).

On to CUCAAGCAAUAUUACGGGUC, for which the “self-splicing fitness (ln)” value (30 °C) is -4.31 ± 0.17 and the “self-splicing fitness (ln)” value (37 °C) is -2.48 ± 0.12.

As to CUCAAGCAAUAUUACGGUCU, the “self-splicing fitness (ln)” value was -3.13 ± 0.16 (30 °C) and -3.56 ± 0.39 (37 °C).

In the case of CUCAAGCAAUAUUACGUAAA, the “self-splicing fitness (ln)” value was -3.37 ± 0.18 (30 °C) and -2.48 ± 0.25 (37 °C).

Consider CUCAAGCAAUAUUACGUAGU, for which the “self-splicing fitness (ln)” value is, setting by setting: (30 °C) -3.43 ± 0.17; (37 °C) -1.91 ± 0.14.

As for CUCAAGCAAUAUUACGUGAU, the “self-splicing fitness (ln)” value (30 °C) was -1.25 ± 0.053 and the “self-splicing fitness (ln)” value (37 °C) was -0.372 ± 0.067.

Regarding CUCCAGCAAUAUUACGAAAA, the “self-splicing fitness (ln)” value runs as follows: (30 °C) -2.78 ± 0.28; (37 °C) -1.89 ± 0.3.
